Test results reported in paper PMC4467374.
No end group written: not given here. Me3 = tri-methyl on lysine side chain

Columns and labels:
[1] = target: tandem tudor domain (TTD) of UHRF1; assay: fluorescence polarisation
[2] = target: tandem tudor domain (TTD) of UHRF1; assay: AlphaScreen or HTRF

Binder	IC50 [1]	IC50 [2]
ARTKQTARKSTGEW (here or on the partner: trimethyl-lysine at K9) [H3K9me3 competition peptide (high affinity competitor)]	12 µM	6 µM
ARTK(Me3)QTARKSTGEW [H3K4me3 competition peptide (low affinity competitor)]		95 µM
